Target: Argonaute-2 (hAgo2) (Homo sapiens, UniProt Q9UKV8 Q9UKV8:1-859)
Experiment: EMSA; DNA cariMir co-migrates with Ago2-miR complex
Conditions: tags: expressed in sf9 insect cells, endogenous insect miRs co-purify; label: fluorescein
Description: Recombinant hAgo2 (Creative Biomart) was preloaded with synthetic miR guide in cleavage buffer (150 mM NaCl, 5 mM MgCl₂, 2.5% glycerol, 0.05% Tween-20, 10 mM Tris-HCl, pH 7.4) for 10-20 min at room temperature, followed by addition of target cariMir. Reactions were stopped by addition of gel loading buffer and immediately resolved by non-denaturing PAGE using 10% TBE gels (Life Technologies). Gels were stained with SYBR Green I and imaged with a PXi gel imager (Syngene). Gel densitometric analysis was performed using Image J and data were plotted in Prism 6 (GraphPad).
When cariMirs were mixed with recombinant Ago2 pre-loaded with synthetic miRs, cariMirs were cleaved producing the expected 5′ and 3′ cleavage products (see FIG. 14B), consistent with miR-guided Ago2 endonucleolytic action subsequent to specific hybridization of cariMir and miR within Ago2. […] Various components of the method are shown in the lanes of the gel as indicated above the gel. In the rightmost lane on the gel image (labeled “miR+Ago2+cariMir”), all components are added to allow potential Ago-mediated cleavage of the cariMir to occur (see FIG. 14A). The amounts of the various components in the reaction mixture are indicated to the left of the gel. […]

Chain of Argonaute-2 (hAgo2) (Q9UKV8 whole entry, one chain of several): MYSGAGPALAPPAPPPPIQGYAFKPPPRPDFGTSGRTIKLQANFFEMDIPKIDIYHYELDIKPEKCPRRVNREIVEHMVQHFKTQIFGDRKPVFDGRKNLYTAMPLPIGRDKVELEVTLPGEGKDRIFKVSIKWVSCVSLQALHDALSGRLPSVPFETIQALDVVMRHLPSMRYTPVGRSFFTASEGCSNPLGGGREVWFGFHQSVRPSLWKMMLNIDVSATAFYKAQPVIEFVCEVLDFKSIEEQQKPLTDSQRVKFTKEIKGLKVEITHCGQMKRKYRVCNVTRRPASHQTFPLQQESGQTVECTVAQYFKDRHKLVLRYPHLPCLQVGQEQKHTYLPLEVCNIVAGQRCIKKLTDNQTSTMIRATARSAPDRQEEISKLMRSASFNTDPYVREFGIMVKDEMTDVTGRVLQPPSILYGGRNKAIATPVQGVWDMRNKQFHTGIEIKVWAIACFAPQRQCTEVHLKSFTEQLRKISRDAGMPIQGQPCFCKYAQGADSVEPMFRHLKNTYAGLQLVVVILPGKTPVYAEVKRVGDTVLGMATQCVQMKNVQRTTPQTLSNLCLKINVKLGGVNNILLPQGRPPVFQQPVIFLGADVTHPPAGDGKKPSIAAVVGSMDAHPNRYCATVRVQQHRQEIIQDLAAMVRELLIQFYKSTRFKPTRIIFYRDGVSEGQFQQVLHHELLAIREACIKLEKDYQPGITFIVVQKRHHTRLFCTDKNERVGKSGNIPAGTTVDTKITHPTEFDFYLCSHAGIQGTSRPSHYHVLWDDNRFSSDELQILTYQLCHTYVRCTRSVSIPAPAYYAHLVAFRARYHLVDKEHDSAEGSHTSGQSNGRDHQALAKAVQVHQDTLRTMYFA

B1: miR guide ; cariMir target (ssRNA ; ssDNA)
RNA: UAGAGGUACGUGCUGAGGCUU
DNA: CTAGCATGACTGCAGTACGTCACTGCAGGCCTCAGCACGTACCTCTATAACCGCCCTGTCTCTTATACACATCTGACGCTGCCGACGA
modifications: 5'-phosphate, internal fluorescein-dT
  binding result: binds

Reference: patent publication US20170356903, “OLIGONUCLEOTIDE PROBES AND USES THEREOF” (Caris Science, Inc., published 2017)
